The results in this text go back to patent publication US20090117593A1, “T. Cruzi-derived neurotrophic agents and methods of use therefor” (Tufts University, priority 2006, published 2009).

“Also recorded” adds a separate entry of the source. Read-outs that look alike come from different tables or passages of the source.

Experiment [1] has as its system neuroblastoma N18 cells. In words: Neurite outgrowth assay in N18 cells. In kind it is cell-based. The conditions noted are these: soluble or immobilized on plastic (500 μg/ml coating), 17 hours. As to the method:
96-well microtiter plates were coated overnight at 4° C. with the TS or peptides or fragments thereof, or with control proteins laminin (Ln) or bovine serum albumin (BSA) at 500 μg/ml. After removing the compounds, the plates were further incubated with 1% BSA for 1 hour at room temperature and immediately used as substratum for PC12 or N18 (Prasad, K., Biol. Rev. Camb. Philos. Soc., 66:431-451 (1991)) cells in serum-free RPMI/0.2% BSA. Neurite outgrowth was measured using a phase-contrast microscope 17 hours later.

Experiment [2] deals with PC12 cells. Kind of experiment: Protection of PC12 cells from apoptosis induced by trophic factor withdrawal (DAPI, TUNEL). In kind it is cell-based. The text has this:
PC12 cells were obtained from ATCC (Manassas, Va. (Accession No. CRL-1721)) and cultured on collagen-coated dishes in RPMI 1640 supplemented with 10% horse serum and 5% fetal bovine serum (Greene, L., and Tishler, A., Proc. Natl. Acad. Sci. USA, 73:2424-2428 (1976)). For differentiation and survival experiments, cells were washed three times in serum-free RPMI/0.2% BSA, plated in the same medium in collagen-coated plastic dishes at 2×10^5/ml, without and with growth factors, TS, recombinant proteins, synthetic peptides, for the time and concentrations indicated in the Figures.
Cell staining with 4,6-diamino-2-phenylindole (DAPI). Cells were fixed with 4% formaldehyde in PBS for 5 minutes, washed with PBS, stained with 10 μg/ml DAPI (Sigma) for 2 minutes, washed with PBS, and visualized under UV light using a fluorescent microscope. About 300-400 cells were examined under the microscope to determine the percentage of apoptotic cells.
Cell DNA nick end labeling (TUNEL) (Gavrieli, Y. et al., J. Cell. Biol., 119:493-501 (1992)) assay was performed using a kit purchased from Boehringer Mannheim as described by the manufacturer.
Protection against apoptosis of PC12 cells in serum-free medium containing a test agent (agent N) (e.g., protection induced by TS, TS fragments, NGF or other growth factors), was calculated by the formula: 100%−[(apoptosis(%) of cells kept in RPMI containing test agent N÷apoptosis (%) of cells kept in RPMI)×100%]. Testing the effect of Wortmannin (Sigma) and LY294002 (Sigma) in inhibiting the neuroprotection of TS was performed following the protocol described by others (Yao, R., and Cooper, G., Science, 267:2003-2006 (1995); D'Mello, et al., J. Neurosci., 17:1548-1560 (1997)). In brief, PC12 cells were switched from growth medium to RPMI without and with TS or various other growth factors. After 24 hours, Wortmannin and LY294002 were added to the cultures. After another 24 hours, cells were examined for apoptosis by the DAPI assay, as above.

Experiment [3] can be described thus: Trans-sialidase assay. In kind it is biochemical. On the procedure:
The trans-sialidase assay was performed as described (Scudder, P. et al., J. Biol. Chem., 268:9886-9891 (1993)) with slight modifications. Various amounts of intact enzyme or enzyme fragments were added to 50 mM PBS, Ph 7.2, containing 15% fetal calf serum and […] of [^14C]N-acetyllactosamine (4×10^5 dpm), 50 μg BSA and 0.02% NaN3 in a volume of 60 μl. After incubation for a predetermined amount of time at room temperature, the reaction mixture was diluted to 1.0 ml with distilled water and applied to a column containing 1.0 ml Q-Sepharose equilibrated with water. Sialylated product was eluted with 1 M NaCl and quantified by scintillation counting.
TS enzymatic activity was measured by the sialylation of the acceptor ^14C-labeled N-acetyllactosamine on anion exchange resins (Scudder, P. et al., J. Biol. Chem. 268:9886-9891 (1993)). Recombinant TSA-1, was expressed on insect sf9 cells and purified from serum-free medium by ion exchange chromatography (monoQ) and preparative SDS-PAGE (Wrightsman, R. A. et al., J. Immunol., 153:3148-3154 (1994).

Experiment [4] relates to PC12 cells. In kind it is cell-based. The conditions noted are these: serum-free RPMI/0.2% BSA, collagen coated dishes, 16-17 hours.
For experiment [5], the system named is human Schwann cells. Kind of experiment: Serum withdrawal-induced apoptosis of Schwann cells (DAPI). In kind it is cell-based. The conditions noted are these: serum-free DMEM, 24-72 hours.
The test system of experiment [6] is IL-6. In words: IL-6 secretion by PBMC (ELISA). In kind it is cell-based, human. As to conditions: 24 hours. On the procedure:
(§1) Primary cultures of human intestinal microvascular endothelial cells (HIMEC) isolated from normal jejunal mucosa/submucosal tissue were prepared as described (Strong et al., Gastroenterology 114:1244-1256 (1998)). The HIMEC were cultured in fibronectin-coated plasticware in MCDB medium (Sigma) supplemented with 20% FBS, 90 μg/ml heparin and 50 μg/ml endothelial cell growth factor (Sigma). T-24 cells (ATCC Accession No. HTB-4) were cultured in M199 medium supplemented with 10% FBS. PBMC were purified by Ficoll-Paque gradient as described (Current Protocols in Immunology, pp 7.1.1-7.1.2). Vero cells (ATCC Accession No. CCL-81) were grown in RPMI medium with 5% Nu serum and infected with the Silvio X-10/4 of T. cruzi as described previously (Chuenkova et al., J. Exp. Med. 181:1693-1703 (1995)).
(§2) Endothelial cells and T-24 cells were plated on 24-well plates at a density of 1×10^3 cells/well, while peripheral blood mononuclear cells (PBMC) were plated in the similar wells at 1×10^6/well. Triplicat cultures of cells were incubated test agents for a predetermined amount of time. […] Cytokines and chemokines released in the culture supernatants were measured by ELISA assay following the instructions of the manufacturer (Endogen). The cytokines tested were IL-1β, IL-4, IL-8, […], IL-12, IFN-γ, TNF-α, and the chemokines RANTES and MCP-1. Negative controls were cells incubated in medium containing polymixin B at 10 μg/ml, and positive controls were cells incubated with bacterial LPS at the low ng/ml range (for PBMC or HIMEC) or in the μg/ml range for carcinoma T-24 cells. In some experiments, IL-1β or TNFα were used as positive control for cytokine release.
TR peptides (Table 2) were synthesized at the Tufts Synthesis Facility (Boston, Mass.). Each peptide was purified by HPLC, and the number of amino acids and molecular weight of each peptide verified by mass spectrometry. Peptides were dissolved in growth medium (10% FCS in RPMI) and added at various concentrations to 1×10^6 PBMC/well in 24-well plates. After 24 hours, IL-6 was assayed by ELISA in the conditioned supernatants.
A general note: An ELISA detects its analyte on a solid surface through an enzyme-linked reagent.

The test system of experiment [7] is IL-6. In words: IL-6 secretion by T-24 carcinoma cells (ELISA). The conditions noted are these: 24 hours. In kind it is cell-based, human. As to the method:
as §1, §2

For experiment [8], the system named is Akt kinase. In words: Immunodetection and kinase assay of activated Akt in Schwann cells. The conditions noted are these: Western blot P-Akt (Ser473). For orientation: A western blot detects proteins with antibodies after separation by electrophoresis.
Description: Schwann cells, grown in 10% FCS to 70% confluency in 6-well plates, were switched to DMEM containing 0.1% FCS for 48 hours to reduce basal Akt phosphorylation. Then the cells were placed in serum-free DMEM medium for 2 hours and challenged with TS, CD or other test factors for predetermined periods of time. When the PI-3 kinase inhibitor LY294002 (Sigma) was used, the inhibitor was added to the serum-starved cells 30 minutes before challenge with TS or CD. Cell samples were lysed with lysis buffer (20 mM Tris, pH 7.5, 150 mM NaCl, 1 mM EDTA, 1% Triton X-100 (t-Octylphenoxypolyethoxyethanol), 2.5 mM sodium pyrophosphate, 1 mM glycerophosphate, 1 mM Na3VO4, 1 μg/ml leupeptin and 1 mM Phenymethylsulfonyl fluoride (PMSF)). Samples (40 μg) were run on 10% SDS-Page, blotted to nitrocellulose paper and analyzed by Western (immuno) blot with monoclonal antibody specific for P-Ser473 of Akt (New England Biolabs). Reaction was visualized by chemiluminescence using the ECL kit (New England Nuclear).
Enzymatic activity of Akt kinase was assessed using the synthetic substrate GSK-3α-fusion protein (Cell Signaling Technology, Beverly, Mass.), according to the protocol provided by Cell Signaling Technology. In short, lysates of Schwann cells subjected to various treatments were immunoprecipitated with Akt antibody coupled to agarose beads, and the immunoprecipitates incubated with GSK-3α-fusion protein as the substrate for Akt phosphorylation, in the presence of 200 μM ATP. Phosphorylation of GSK-3 fusion protein was detected by Western blot using phospho-GSK-3αβ (Ser21/9)-specific antibody (Cell Signaling Technology). The reaction product was identified by chemiluminescence using the ECL kit (New England Nuclear).

B1: TS-F-47: recombinant fragment, amino acid residues 79-666 of SEQ ID NO:34 (protein, listed as Trypanosoma cruzi)
chain: GDARDWDILLAVGEVTKSTAGGKITASIKWGSPVSLKKFFPAEMEGMHTNQFLGGAGVAIVASNGNLVYPVQVTNKRKQVFSKIFYSEDDGKTWKFGKGRSDFGCSEPVALEWEGKLIINTRVDWKRRLVYESSDMEKPWVEAVGTVSRVWGPSPKSNQPGSQTSFTAVTIEGMRVMLFTHPLNFKGRCVRDRLNLWLTDNQRIYNVGQVSIGDENSAYSSVLYKDDKLYCLHEINTDEVYSLVFARLVGELRIIKSVLRSWKNWTATCPAFAPLLIQPLRRQRVVVVPLSPRLVLLAFCRQRLPKRMGGSYRCVNASTANAERVRNGLKFAGVGGGALWPVSQQGQNQRYRFANHAFTLVASVTIHEAPRAASPLLGASLDSSGGKKLLGLSYDEKHQWQPIYGSTPVTPTGSWETGKRYHLVLTMANKIGSVYIDGELLEGSGQTVVPDGRTPDISHFYVGGYKRSDMPTISHVTVNNVLLYNRRQLNTEEIRTLFLSQDLIGTEAHMDSSSDSSAHSTPSTPADSSAHSTPSTPVDSSAHSTPSTPADSSAHGTPSTPVDSSAHGTPSTPADSSAHGTPSTPVDS
As to B1, in experiment [1], the “neurite outgrowth in N18 cells” value was “as effective as the native enzyme in stimulating neurite outgrowth; also recorded: active both in stimulating neurite outgrowth”. For the same molecule, the “protection of PC12 cells from apoptosis induced by trophic factor withdrawal” value in experiment [2] (serum-free RPMI-1640/0.2% BSA, 17 hours, DAPI or TUNEL) was “active”. In experiment [3], the “trans-sialidase (enzymatic) activity” value was “enzymatically inactive”.

B2: NGF: Mouse 7S nerve growth factor (protein)
chain: SSTHPVFHMGEFSVCDSVSVWVGDKTTATDIKGKEVTVLAEVNINNSVFRQYFFETKCRASNPVESGCRGIDSKHWNSYCTTTHTFVKALTTDEKQAAWRFIRIDTACVCVLSRKATRRG
Regarding B2, the “neurite outgrowth in PC12 cells” value in experiment [4] was “induces neurite outgrowth”. In addition, in experiment [2] (NGF at 0.5 ng/ml), the “PC12 cells protected from apoptotic death” value worked out at 18%.

B3: TS-Cat-47: recombinant fragment consisting of amino acid residues 79-415 of TS (SEQ ID NO:2) (protein, listed as Trypanosoma cruzi)
chain: MVAIADARYDTSNDNSLIDTVAKYSVDDGETWETQIAIKNSRVSSVSRVVDPTVIVKGNKLYVLVGSYYSSRSYWSSHGDARDWDILLAVGEVTKSTAGGKITASIKWGSPVSLKKFFPAEMEGMHTNQFLGGAGVAIVASNGNLVYPVQVTNKKKQVFSKIFYSEDDGKTWKFGKGRSDFGCSEPVALEWEGKLIINTRVDWKRRLVYESSDMEKPWVEAVGTVSRVWGPSPKSNQPGSQSSFTAVTIEGMRVMLFTHPLNFKGRWLRDRLNLWLTDNQRIYNVGQVSIGDENSAYSSVLYKDDKLYCLHEINTDEVYSLVFARLVGELRIIKSVL
Regarding B3, the “neurite outgrowth in N18 cells” value in experiment [1] is “inactive in stimulating neurite outgrowth; also recorded: did not promote neurite outgrowth”.

B4: LTR: recombinant full-length C-terminal long tandem repeat of TS clone 7F (protein)
chain: NRRQLNTEEIRTLFLSQDLIGTEAHMDSSSDSSAHSTPSTPADSSAHSTPSTPVDSSAHSTPSTPADSSAHGTPSTPVDSSAHGTPSTPADSSAHGTPSTPVDSSAHSTPSTPVDSSAHSTPSTPVDSSAHGAPSTPADSSAHGTPSTPVDSSAHGTPSTPADSSAHSTPSTPADSSAHSTPSTPADSSAHSTPSTPVDSSAHGTPSTPADSSAHSTPSTPADSSAHGTPSTPVDSSAHSTPSTPVDSSAHGTPSTPVDSSAHSTPSTPVDSSAHGTPSTPVDSSAHSTPSTPADSSAHSTPSTPADSSAHGTPSTPVDSSAHSTPSTPADSSAHSTPSTPVDSSAHSTPSTPADSSAHGTPSTPVDSSAHGTPSTPADSSAHSTPSTPADSSAHSTPSTPADSSAHSTPSTPVDSSAHSTPSTPADSSAHSTPSTPADSSAHSTPSTPADSSAHSTPSTPVDSSAHSTPSTPADSSAHGTPSTPADSSAHSTPSTPVDSSAHSTPSTPADSSAHGTPSTPADSSAHSTPSTPADSSAHGTPSTPADSSAHSTPSTPAGSSANGTVLILPDGAALSTFSGGGLLLCACALLLHVFFMAVF
As to B4, the “neurite outgrowth in PC12 cells” value in experiment [4] is “did not induce neurite outgrowth”. Further, in experiment [1], the “neurite outgrowth in N18 cells” value is on record as “did not induce neurite outgrowth”. Moreover, the “inhibition of serum withdrawal-induced apoptosis of Schwann cells” value in experiment [5] is “did not promote Schwann cell survival”. In addition, the “IL-6 secretion by PBMC” value in experiment [6] is given as “upregulated IL-6 release”. The “IL-6 secretion by T-24 cells” value in experiment [7] is “effectively induced release of IL-6 in a dose-dependent manner; also recorded: dose dependent secretion of IL-6”. The “phosphorylation (activation) of Akt kinase in Schwann cells” value in experiment [8] is “nor activate PI3K/Akt signaling”.

B5: cruzipain: T. cruzi protease (protein, UniProt P25779 123-467, looked up)
Cruzipain: APAAVDWRARGAVTAVKDQGQCGSCWAFSAIGNVECQWFLAGHPLTNLSEQMLVSCDKTDSGCSGGLMNNAFEWIVQENNGAVYTEDSYPYASGEGISPPCTTSGHTVGATITGHVELPQDEAQIAAWLAVNGPVAVAVDASSWMTYTGGVMTSCVSEQLDHGVLLVGYNDSAAVPYWIIKNSWTTQWGEEGYIRIAKGSNQCLVKEEASSAVVGGPGPTPEPTTTTTTSAPGPSPSYFVQMSCTDAACIVGCENVTLPTGQCLLTTSGVSAIVTCGAETLTEEVFLTSTHCSGPSVRSSVPLNKCNRLLRGSVEFFCGSSSSGRLADVDRQRRHQPYHSRHRRL
Turning to B5, the “neurite outgrowth in PC12 cells” value in experiment [4] is on record as “did not induce neurite extension”; in experiment [4] (listed as cruzipan), “ineffective”.
